From a protein production outcome set (Wang et al. 2014)

assay: label from the status in PepcDB records

Sequence	protein production
LHARLLQQESIINALPFAVFIRTAAGELAVYNSHFAEAHQDKLNDLLNHNNEPANWPMTSPLDREIDKYCRQVLTHRKPQMVDLSLEINGELRDIFLWIIPLDNAERSLFGGWLDISQRKTVERQLEAARVEAESANRTKSTFLATISHELRTPMYAIMGLL	failed
LHRIVDKMHDTSTGIRPSPNMEQGSTYKKTFLGSSLVDWLISSNFAASRLEAVTLASMLMEENFLRPVGVRSMGAIRSGDLAEQFLDDSTALYTFAESYKKKVSSKE	not failed
LICLLSSLLSVQAAPGPHPHWSVGFHEMSFLDPLDRQPMRAIAFYPSTGIEHGSQLEGYQIAASRDAKIAIGRFPMLMLSHGNTGTPLALHDLATSLARKGFVVVAVIHPGDNSKDHSRLGTLSNLYGRPIQISEAITATLGDPMLSPFVNADQVGVIGYSAGGETALILSGATPDLDRLRRYCQERPNDRDACNTQGELIVDRDDLQPVADPRVHALMLLAPLSLKFGRQTLAGVHVPVLLYSGDGDQLVALDKNAAALARKLPVAPDFKLLAGAGHFVFMAPCSAQQMAAMPALCTDADGVDREDIHRNLILEAGNFFA	failed
LIHKYKNFVRAKSRSYFLVGADREDIVQEGMIGLFKAIRDYKEDKLSSFKAFAELCITRQIITAIKTATRQKHIPLNSYVSLDKPIYDEESDRTLLDVISEAKVTDPEEMIISQEEYTDIESKISELLSDLERKVLSLYLDGRSYQEISEQLNRHVKSIDNALQRVKRKLERYMEMRESTTLNS	not failed
LKASGVQAQMAKQQEQDPTNLYISNLPLSMDEQELENMLKPFGQVISTRILRDSSGTSRGVGFARMESTEKCEAVIGHFNGKFIKTPPGVSAPTEPLLCKF	not failed
LKDIETACKLLNITADPMDWSPSNVQKWLLWTEHQYRLPPMGKAFQELAGKELCAMSEEQFRQRSPLGGDVLHAHLDIWKSAA	not failed
LKRDFIILGNGPRLQNSTYQCKHCDSKLQSTAELTSHLNIHNEEFQKRAKRQERRKQLLSKQKYADGAFADFKQE	not failed
LLALWVSAGELMAASKGAAGFTKATQEVSSYQTPVSNLMKAIAAVIVLVGAFNVYFKMQNGDQDVKKTIMLTIGGCIAFIALSEALPLFF	failed
LLARALYDNCPDCSDELAFSRGDILTILEQHVPESEGWWKCLLHGRQGLAPANRLQIL	not failed
LLGLGVGPGDPELITLKALRLLRAAPVVGYFVAKGKKGNAFGIIEAHLDQAQVRLPLVYPVTTEKLEPPLCYETIISDFYDTAAEQLAAHLDAGRDVAVICEGDPFFYGSYMYLHDRLATRYESEVVPGVCSMLGGAAVLGAPLVYRNQSLSVLSGVLPEEELRRRLADADAAVVMKLGRNFDKVRRVLVELGLERRALYVERATMANQRIVPLERVEPMASPYFSLIVVPGDKWQGGAGGE	failed
LLSLALAALMEDVHAHSGAVYLLAPDEPVLEMAVMAGLPRAFAAPWERVGLSAPLPVAEAVRERRLVWVNGEEQMAGRYPRVAVVLPYSFALAALPLACADTVYGALFVTWPDSHPPELSSRERDQLGVACDRLATRLAHA	failed
LNDALLLMEANIEDPLTTDEIAGLVGVSRRQLERLFRQYLGAMPSKYYLNLRLLKARTQLQRTSKSVVQVSLACGFSSAAHFSNAYRERFGVTPREDRRA	not failed
LNLPYDEHADAWTQVKKALAAGKRTHKPTLLVFGANWCTDCRALDKSLRNQKNTALIAKHFEVVKIDVGNFDRNLELSQAYGDPIQDGIPAVVVVNSDGKVRYTTKGGELANARKMSDQGIYDFFAKITETRGV	failed
LNTNQLFAYLNRGDIAEFKFSPLFTTLFFPNVATFSTQNIMLDTLDIEEVTMSAFCSPMVGSQVQRDKGYETSTIKPGYMKPKHEIDPTKTIMRMAGEDPAQLNDPTYRRMRLITGNMRRQINAIKARVEWLAVNAVTTGKNIIEGEGIERYEIDWKIPEKNIIEQADGKKWSEQDKETHYPIYDIELYADQAGCPANVMIMGAEVWRTLRSFKKFRELYDLSRGSESAAELACKNLGEVVSFKGYLGDLALIVYSGKYTDSDGTEKYFLEPDLLVLGNTNNKGLVAYGAIMDQEAVRTGATQNMFYPKNWIEDGDPAIEYVQTHSAPQPVPADIRKFVTVKIA	failed
LPRQIAATVDLNSHGAGEHLDEQVIHCAHDLALQCNAELHLLHVCDAAKTHIADFGAGTVTMPGFDSSVRTAQRAAFNRLGDHHQIPLERRHFLEGAAIRAIAQFVGHNRVDVIVMGSHRHDAMQTFLGGTTAHVLEHPLCNVLAIKAVR	failed
LPVILWFLAHGLDVVFIDYPRDPATGVQYYCDSIAAAKSLLDAVLASRQLGLSPEAPLGLWGFSQGGGATGWAAQLQDYAPDVRPKAAVVGAPPVDLFRVLDTVDGGLLTGVIAYAIAGLAVNSSEMFEEIMSVLNERGVSDVLKNITSCAGGSLLASGYSSSRGWTHQGTPLADILDDLPLVVAEFGKQKLGRVAPEIPVLLWGSKNDDVIPIDPIRELRDSWADKGTPLTWHESQAPRVPGRTGLNHFGPYFRNLEKYSGWLIDHL	failed

Sequence	protein production
LQQFLDALASSPEKIEFETTMAVIEDNYDFTPAAFTNGNTQNDANENNGSCKIFAFGLLNALDKEATLACFGRFYREDVLLHPENNDHQNIRNFMVTGWEGIQFETSALTAK	not failed
LRASEIMNRTLDLQIIMDDLLNLLLKEFKLDLAVIRLVDEKGVLRVRSYSGKGIAGIAGKDWEPEIETYIGEAFLSNRLQFVNDTQYMTKPLTRELMQKEGIKSFAHIPISRKGEPPFGILSVFSRTIVGLFNEPFLNLLESLAGQLAQAVKIVTEMEAKEREREEKERILLENA	not failed
LRGTHSQLRCVLNAATQVAIIATDLRGVISTFNAGAEQMLGYSSSEAVGHLTLESLHLPEELESWAQSLTQRYGKAIPVSQAMLVEEGMAGGHEAREWTLVRRDGSHLQVNMLATPVLDDQGLWIGHLAICIDITERKRVHEA	failed
LRTIVELMENNLEETLSLDQLAAYSGRSRRQIDRLFQAQLGTSPRRYYMELRITKSRRLLQYSDLSVMEVAVACGFVSVSHFSKCYAAYFGYPPSREQRLGE	failed
LSASEERFQLAVSGASAGLWDWNPKTGAMYLSPHFKKIMGYEDHELPDEITGHRESIHPDDRARVLAALKAHLEHRDTYDVEYRVRTRSGDFRWIQSRGQALWNSAGEPYRMVGWIMDVTDRKRDEDALRVSREELRRL	not failed
LTPLAQMAEGMERQDVSIDKWTLHAKQNLSLTEKEFYQKVQRLKQEYRQYDWVIAREDKMIKAIGTYTDKKNRTSFRLQLVTTLKKHNPTSYLLYEQMSLETPDSWNDTYEQFERETLGIFQEKVVIFTCLNGHLDDNMNIVLQKKANQLLNEFQARSVEHVVEPNFVSISAFTDEWEEYIMTSKHKMNLQIALRSAGMGGKHTVTVGTPIVTTEY	not failed
LTTTSADYIGPIVEHQYLQWDNWPRLGEILRSEKPLAFQQESRFAHDTRARDAFNDAMVRLSQPMVDVVSELGVFARARTVIDLAGGHGTYLAQVLRRHPQLTGQIWDLPTTRDAARKTIHAHDLGGRVEFFEKNLLDARNFEGGAADVVMLNDCLHYFDAREAREVIGHAAGLVKPGGALLILTMTMNDDRVTPALSADFSLHMMVNTNHGELHPTPWIAGVVRDAGLAVGERSIGRYTLLIGQRSSGEV	failed
LVAVDEFIRRHFSQPVTMAELTGIAGMSAAQLERYCKKVFHLSPRQMIHKARLEHAHRLLHADMAITEVALRCGYADHSAFSRQFKALTGLTPRQYRQQ	failed
LVKETACAVVDKLKSGEVTPIEVLDVLEERIAEVDGAINALPTLCFDRARGHAAELMKKPPAERGLLAGLPVPIKDLTAVAGVLTTQGSPIYKDNVPARSDLMVEHLEGNGGVVYAKSNTPEFGAGANTFNEVFGATRNPWDLSRSAAGSSGGAAAALASGTAWLAHGSDMGGSLRNPASFCGIVGLRPSFGRVAHTPAAKIDRNLGVQGPMARNVEDVALLLDAMSGEYAADPLSIPSPATSFLAAARSRQKPLRVAYSPDLGITPVDPEVAAVTRKAAERFAEAGVIVEQAQPDLSEAHECFQALRAFDFAISKADLLRTKRDLLKPEVIWNIEQGLKLSVDDLAKAEAQRVAMTARTIEFFKTYDLLLCPATITAPFPVEQRYLAECNGHTFGNYVEWLGIVYAITLVCCPALSLPCGFTATGLPIGLQMVARPRNEAGLLAGAALLEDILGLKSTTP	failed
LVVSEARFRAAIDAVQGVLWTNNASGKMVGEQPGWSALTGQIREEYEGVGWTKVVHPDDVEPTLSAWLAAVAEKRTFEFEHRVRRHDGVWRDCLIRAVPLIGDNGEIREWVGVHTDISEQKAAAEK	failed
MAAAGEEYSSDKIEERSLAAIDSMIDPDISGPMRHIVVKAIHAAGDFAIAPLIRYSDGFFKSMLAKLKEGCTIICDSEMVRAGIYSRPVLERNRVVCYLNDVRSKEMADVNGITRSAAGIRIAMQDHRNSVIVIGNAPTALLEAMRMIEENGWYDIPIVGIPVGFINASKAKEGLVSSHIEYISVEGHRGGSPIAASIVNGFGRFLA	not failed
MAAAMVPGRSESWERGEPGRPALYFCGSIRGGREDRTLYERIVSRLRRFGTVLTEHVAAAELGARGEEAAGGDRLIHEQDLEWLQQADVVVAEVTQPSLGVGYELGRAVAFNKRILCLFRPQSGRVLSAMIRGAADGSRFQVWDYEEGEVEALLDRYFEADPPGQVAASPDPTT	failed
MAADPASAPVLLHPRRAMVLAAGLGLRMRPLTETMPKPLVAIHDKPLIDWALDHLATAGVEEAVVNLHHLPEMLEAHLQGRATPRIHFSDETGQRLETGGGVRKALPHLGDDPFYVLNSDVLWLNGTIPALDRLAAAWDPETMDALLLLHPLAAAHGYEGLGDFDLDPLGRPTRRAEMHMAPFIFTGVQILHPRLFDDAPEGPFSLNVLYDRALSEDRLAAIVHDGEWYHVGTPQALVHTETILGQHSSMSDQLEHHHHHH	failed
MAAEIGSDSQLKRRRRRDPEGSEKTELSEREPALAVEGREENDDENEERWVGPLPVEATLAKKRKVLEFERVYLENLPSASMYERSYMHRDVITHVVCTKTDFIITASHDGHVKFWKKIEEGIEFVKHFRSHLGIIESIAVSSEGALFCSVGDDKAMKVFDVVNFDMINMLKLGYFPGQCEWIYCPGDAISSVAASEKSTGKIFIYDGRGDNQPLHIFDKLHVSPLTQIRLNPVYKAVVSSDKSGMIEYWTGPPHEYKFPKTVNWEYKTDTDLYEFAKCKAYPTSICFSPDGKKIATIGSDRKVRIFRFLTGKLMRVFDESLSMFTELQQMRQQLPDMEFGRRMAVERELEKVDAVRLINIVFDETGHFVLYGTMLGIKVINVETNRCVRILGKQENIRVMQLALFQGIAKKHRAAATIEMKASENPVLQNIQADPTIVCTSFKKNRFYMFTKREPEDTKSADSDRDVFNEKPSKEEVMAATQAEGPKRVSDSAIVHTSMGDIHIKLFPVECPKTVENFCVHSRNGYYNGHTFHRIIKGFMIQTGDPTGTGMGGESIWGGEFEDEFHSTLRHDRPYTLSMANAGSNTNGSQFFITVVPTPWLDNKHTVFGRVTKGMEVVQRISNVKVNPKTDKPYEDVSIINITVK	failed
MAAEPLTELEESIETVVTTFFTFARQEGRKDSLSVNEFKELVTQQLPHLLKDVGSLDEKMKSLDVNQDSELKFNEYWRLIGELAKEIRKKKDLKIRKK	not failed
MAAFVRDYLEASVENETDGGRMRWYPWHSAEYRFTHIMNVVDIAERIAEATSANVDVVRVAALFHDIAKLEAEQDAHAEEGARIARKYLETHGQFPPSFVDQVAEAVSRHSYQGDLMDLPLEARCLVEADLLDKAGANGAALMLLRMGYEARTHVDAAEMIQRVLDRGEDAAERVESDAASSIAHRRLKRVRWLHDWLTSEVPAMNDTGY	failed
